Earlier results in paper PMC4845744.

Biological target: MutLα (Homo sapiens) (UniProt P40692)
Sequence (P40692 2-756, chain 1 of 2): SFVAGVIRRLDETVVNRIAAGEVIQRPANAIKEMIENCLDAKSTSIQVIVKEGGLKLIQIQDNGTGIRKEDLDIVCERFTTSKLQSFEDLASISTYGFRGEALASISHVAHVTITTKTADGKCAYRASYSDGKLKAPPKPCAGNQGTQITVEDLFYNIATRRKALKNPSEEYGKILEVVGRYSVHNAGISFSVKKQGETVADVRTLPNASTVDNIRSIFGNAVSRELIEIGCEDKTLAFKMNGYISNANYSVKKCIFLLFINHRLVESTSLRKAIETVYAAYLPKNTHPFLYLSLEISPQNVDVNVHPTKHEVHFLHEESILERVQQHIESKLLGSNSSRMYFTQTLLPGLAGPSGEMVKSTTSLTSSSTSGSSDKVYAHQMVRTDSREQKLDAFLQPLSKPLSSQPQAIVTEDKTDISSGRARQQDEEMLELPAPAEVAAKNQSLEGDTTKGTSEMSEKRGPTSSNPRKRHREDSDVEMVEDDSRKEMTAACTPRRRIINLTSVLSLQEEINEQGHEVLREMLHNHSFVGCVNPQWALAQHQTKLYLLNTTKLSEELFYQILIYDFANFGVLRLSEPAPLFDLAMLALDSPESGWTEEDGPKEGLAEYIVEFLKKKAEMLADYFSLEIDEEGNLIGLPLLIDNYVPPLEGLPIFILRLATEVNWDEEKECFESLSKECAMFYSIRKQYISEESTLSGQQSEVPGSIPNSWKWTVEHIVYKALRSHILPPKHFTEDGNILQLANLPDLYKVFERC
Sequence (P54278 whole entry, chain 2 of 2, further chain): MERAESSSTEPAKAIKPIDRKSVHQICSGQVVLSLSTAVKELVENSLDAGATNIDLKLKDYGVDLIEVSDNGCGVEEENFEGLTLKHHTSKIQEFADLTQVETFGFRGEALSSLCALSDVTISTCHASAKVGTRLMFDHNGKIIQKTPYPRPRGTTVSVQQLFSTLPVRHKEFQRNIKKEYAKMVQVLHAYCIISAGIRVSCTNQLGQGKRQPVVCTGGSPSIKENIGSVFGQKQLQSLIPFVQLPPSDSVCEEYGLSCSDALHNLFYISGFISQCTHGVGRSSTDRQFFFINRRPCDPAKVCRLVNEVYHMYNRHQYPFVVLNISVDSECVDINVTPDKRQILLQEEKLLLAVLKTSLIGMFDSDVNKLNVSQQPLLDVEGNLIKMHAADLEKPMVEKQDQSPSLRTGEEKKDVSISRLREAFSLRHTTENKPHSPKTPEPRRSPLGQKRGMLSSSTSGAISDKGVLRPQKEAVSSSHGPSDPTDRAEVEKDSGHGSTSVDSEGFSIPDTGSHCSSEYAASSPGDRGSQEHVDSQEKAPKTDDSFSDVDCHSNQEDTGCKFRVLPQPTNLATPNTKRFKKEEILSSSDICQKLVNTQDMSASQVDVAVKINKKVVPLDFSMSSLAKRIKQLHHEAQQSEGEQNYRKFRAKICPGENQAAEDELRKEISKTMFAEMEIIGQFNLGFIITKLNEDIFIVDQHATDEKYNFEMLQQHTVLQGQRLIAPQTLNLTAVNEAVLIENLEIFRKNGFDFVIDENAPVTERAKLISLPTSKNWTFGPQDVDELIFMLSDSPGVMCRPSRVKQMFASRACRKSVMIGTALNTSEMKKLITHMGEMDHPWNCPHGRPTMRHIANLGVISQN

MutSβ (from UniProt P43246)
Kd: 250 nM
